Data on 37 substances can be found in patent publication US20220177587A1, “METHODS AND USES OF VARIANT CD80 FUSION PROTEINS AND RELATED CONSTRUCTS” (Alpine Immune Sciences, Inc., priority 2018, published 2022).

Experiment [1] deals with PD-L1 (human) (UniProt Q9NZQ7).
Experiment [2] addresses CD28 (human) (UniProt P10747).
Experiment [3] has as its target PD-L1 (human) (UniProt Q9NZQ7). The source holds these as a separate data set.
For experiment [4], the target named is CD28 (human) (UniProt P10747). This is another data set of the same source.

Where two headings read alike, the source gives them in different places.

Chain of PD-L1 (human) (Q9NZQ7 19-290): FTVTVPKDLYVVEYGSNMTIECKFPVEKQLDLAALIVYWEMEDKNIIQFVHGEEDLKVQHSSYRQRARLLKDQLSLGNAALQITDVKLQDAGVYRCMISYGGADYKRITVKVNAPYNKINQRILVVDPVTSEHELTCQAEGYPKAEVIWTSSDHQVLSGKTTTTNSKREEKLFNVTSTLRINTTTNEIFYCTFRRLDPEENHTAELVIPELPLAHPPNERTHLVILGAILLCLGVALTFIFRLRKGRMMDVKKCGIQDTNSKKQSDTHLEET

For the substance “CD80 E35D/T41S/M43V/M47I/L70M/A71G IgV-Fc (inert) (Fc fusion)”, the Jurkat/IL2 reporter RLU at 50 nM, K562/OKT3/PD-L1 aAPC in experiment [1] and in experiment [2] was 1670 RLU in each case.

“CD80 A26E/E35D/M47L/A71G IgV-Fc (inert) (Fc fusion)”: the Jurkat/IL2 reporter RLU at 50 nM, K562/OKT3/PD-L1 aAPC in experiment [1] and in experiment [2] was 1750 RLU throughout.

Turning to “CD80 E35D/M47V/A71G IgV-Fc (inert) (Fc fusion)”, the Jurkat/IL2 reporter RLU at 50 nM, K562/OKT3/PD-L1 aAPC in experiment [1] and in experiment [2] was 1190 RLU each time.

“CD80 H18Y/V22A/E35D/M47V/T62S/A71G IgV-Fc (inert) (Fc fusion)”: the Jurkat/IL2 reporter RLU at 50 nM, K562/OKT3/PD-L1 aAPC in experiment [1] and in experiment [2] was 1380 RLU in each case.

Consider “CD80 T28Y/Q33H/E35D/D46V/M47I/A71G IgV-Fc (inert) (Fc fusion)”, for which the Jurkat/IL2 reporter RLU at 50 nM, K562/OKT3/PD-L1 aAPC in experiment [1] and in experiment [2] was 580 RLU each time.

Take “CD80 E35D/M47V/N48T/L85Q IgV-Fc (inert) (Fc fusion)”: the Jurkat/IL2 reporter RLU at 50 nM, K562/OKT3/PD-L1 aAPC in experiment [1] and in experiment [2] was 897 RLU throughout.

Take “CD80 E35D/T41S/M47V/L97Q IgV-Fc (inert) (Fc fusion)”: the Jurkat/IL2 reporter RLU at 50 nM, K562/OKT3/PD-L1 aAPC in experiment [1] and in experiment [2] was 594 RLU each time.

As for “CD80 E35D/T41S/M43I/A71G/D90G IgV-Fc (inert) (Fc fusion)”, the Jurkat/IL2 reporter RLU at 50 nM, K562/OKT3/PD-L1 aAPC in experiment [1] and in experiment [2] was 1120 RLU throughout.

“CD80 E35D/M43I/M47V/K89N IgV-Fc (inert) (Fc fusion)”: the Jurkat/IL2 reporter RLU at 50 nM, K562/OKT3/PD-L1 aAPC in experiment [1] and in experiment [2] was 1090 RLU each time.

Consider “CD80 H18Y/E35D/N48K IgV-Fc (inert) (Fc fusion)”, for which the Jurkat/IL2 reporter RLU at 50 nM, K562/OKT3/PD-L1 aAPC in experiment [1] and in experiment [2] was 1230 RLU each time.

For “CD80 V22A/E35D/V68E/A71D IgV-Fc (inert) (Fc fusion)”, the Jurkat/IL2 reporter RLU at 50 nM, K562/OKT3/PD-L1 aAPC in experiment [3] and in experiment [4] was 538 RLU throughout.

Turning to “CD80 A26E/E35D/M43I/M47L/L85Q/K86E/R94W IgV-Fc (inert) (Fc fusion)”, the Jurkat/IL2 reporter RLU at 50 nM, K562/OKT3/PD-L1 aAPC in experiment [3] and in experiment [4] was 498 RLU in each case.

Turning to “CD80 Q33L/E35D/M43V/M47I/A71G IgV-Fc (inert) (Fc fusion)”, the Jurkat/IL2 reporter RLU at 50 nM, K562/OKT3/PD-L1 aAPC in experiment [3] and in experiment [4] was 473 RLU throughout.

With “CD80 E7D/E35D/M47I/L97Q IgV-Fc (inert) (Fc fusion)”, the Jurkat/IL2 reporter RLU at 50 nM, K562/OKT3/PD-L1 aAPC in experiment [3] and in experiment [4] was 1240 RLU each time.

With “CD80 H18Y/Q33L/E35D/M47I IgV-Fc (inert) (Fc fusion)”, the Jurkat/IL2 reporter RLU at 50 nM, K562/OKT3/PD-L1 aAPC in experiment [3] and in experiment [4] was 486 RLU throughout.

For the substance “CD80 H18Y/E35D/M47L IgV-Fc (inert) (Fc fusion)”, the Jurkat/IL2 reporter RLU at 50 nM, K562/OKT3/PD-L1 aAPC in experiment [3] and in experiment [4] was 2980 RLU throughout.

Take WT CD80-ECD-Fc (effector) (Fc fusion): the Jurkat/IL2 reporter RLU at 50 nM, K562/OKT3/PD-L1 aAPC in experiment [4] amounted to 3040 RLU; in experiment [2], 1790 RLU.

Consider “CD80 Q33R/E35D/K37E/M47V/L85Q IgV-Fc (inert) (Fc fusion)”, for which the Jurkat/IL2 reporter RLU at 50 nM, K562/OKT3/PD-L1 aAPC in experiment [3] and in experiment [4] was 464 RLU throughout.

For “CD80 Q27H/E35D/M47L/L85Q/R94Q/E95K IgV-Fc (inert) (Fc fusion)”, the Jurkat/IL2 reporter RLU at 50 nM, K562/OKT3/PD-L1 aAPC in experiment [3] and in experiment [4] was 513 RLU in each case.

In the case of “CD80 H18Y/Y31H/E35D/M47V/A71G/L85Q IgV-Fc (inert) (Fc fusion)”, the Jurkat/IL2 reporter RLU at 50 nM, K562/OKT3/PD-L1 aAPC in experiment [3] and in experiment [4] was 455 RLU in each case.

In the case of “CD80 Q33L/E35D/M43I/L85Q/R94W IgV-Fc (inert) (Fc fusion)”, the Jurkat/IL2 reporter RLU at 50 nM, K562/OKT3/PD-L1 aAPC in experiment [3] and in experiment [4] was 553 RLU in each case.

As to “CD80 A26E/Q33L/E35D/M47L/L85Q IgV-Fc (inert) (Fc fusion)”, the Jurkat/IL2 reporter RLU at 50 nM, K562/OKT3/PD-L1 aAPC in experiment [3] and in experiment [4] was 416 RLU each time.

As to “CD80 A26E/E35D/M43T/M47L/L85Q/R94Q IgV-Fc (inert) (Fc fusion)”, the Jurkat/IL2 reporter RLU at 50 nM, K562/OKT3/PD-L1 aAPC in experiment [3] and in experiment [4] was 526 RLU in each case.

For the substance “CD80 Q33K/E35D/M47V/K89E/K93R IgV-Fc (inert) (Fc fusion)”, the Jurkat/IL2 reporter RLU at 50 nM, K562/OKT3/PD-L1 aAPC in experiment [3] and in experiment [4] was 415 RLU each time.

In the case of “CD80 Y31S/E35D/M47L/T79L/E88G IgV-Fc (inert) (Fc fusion)”, the Jurkat/IL2 reporter RLU at 50 nM, K562/OKT3/PD-L1 aAPC in experiment [3] and in experiment [4] was 496 RLU each time.

Consider “CD80 Q33L/E35D/M47V IgV-Fc (inert) (Fc fusion)”, for which the Jurkat/IL2 reporter RLU at 50 nM, K562/OKT3/PD-L1 aAPC in experiment [3] and in experiment [4] was 393 RLU in each case.

As to “CD80 A26E/Q33R/E35D/M47L/L85Q IgV-Fc (inert) (Fc fusion)”, the Jurkat/IL2 reporter RLU at 50 nM, K562/OKT3/PD-L1 aAPC in experiment [3] and in experiment [4] was 500 RLU throughout.

On to “CD80 V22A/E23D/Q33L/E35D/M47V IgV-Fc (inert) (Fc fusion)”, for which the Jurkat/IL2 reporter RLU at 50 nM, K562/OKT3/PD-L1 aAPC in experiment [3] and in experiment [4] was 390 RLU throughout.

On to “CD80 H18Y/A26E/Q33L/E35D/M47L/L85Q IgV-Fc (inert) (Fc fusion)”, for which the Jurkat/IL2 reporter RLU at 50 nM, K562/OKT3/PD-L1 aAPC in experiment [3] and in experiment [4] was 408 RLU throughout.

“CD80 H18L/V22A/E35D/M47L/N48T/L85Q IgV-Fc (inert) (Fc fusion)”: the Jurkat/IL2 reporter RLU at 50 nM, K562/OKT3/PD-L1 aAPC in experiment [3] and in experiment [4] was 2650 RLU each time.

Regarding “CD80 E35D/M47L/A71G/L97Q IgV-Fc (inert) (Fc fusion)”, the Jurkat/IL2 reporter RLU at 50 nM, K562/OKT3/PD-L1 aAPC in experiment [3] and in experiment [4] was 2160 RLU in each case.

Take “CD80 Q33L/E35D/M47I/L85Q IgV-Fc (inert) (Fc fusion)”: the Jurkat/IL2 reporter RLU at 50 nM, K562/OKT3/PD-L1 aAPC in experiment [3] and in experiment [4] was 432 RLU in each case.

Take “CD80 S15P/Q33L/E35D/M47L/L85Q IgV-Fc (inert) (Fc fusion)”: the Jurkat/IL2 reporter RLU at 50 nM, K562/OKT3/PD-L1 aAPC in experiment [3] and in experiment [4] was 468 RLU throughout.

For “CD80 Q33R/E35D/D46E/M47I IgV-Fc (inert) (Fc fusion)”, the Jurkat/IL2 reporter RLU at 50 nM, K562/OKT3/PD-L1 aAPC in experiment [3] and in experiment [4] was 522 RLU throughout.

In the case of “CD80 Q33L/E35D/T41S/M43I IgV-Fc (inert) (Fc fusion)”, the Jurkat/IL2 reporter RLU at 50 nM, K562/OKT3/PD-L1 aAPC in experiment [3] and in experiment [4] was 533 RLU throughout.

On to “CD80 E35D/M47V/A71G/L85M/L97Q IgV-Fc (inert) (Fc fusion)”, for which the Jurkat/IL2 reporter RLU at 50 nM, K562/OKT3/PD-L1 aAPC in experiment [3] and in experiment [4] was 576 RLU each time.

Take “CD80 Q33L/E35D/M47V/L85Q IgV-Fc (inert) (Fc fusion)”: the Jurkat/IL2 reporter RLU at 50 nM, K562/OKT3/PD-L1 aAPC in experiment [3] and in experiment [4] was 556 RLU each time.
